Target: Era fused to SB (small bit of luciferase) (S. aureus) (UniProt Q2FGF6)
Test: split reporter

YbeY (split luciferase fusion) (natural protein), sequence (A5IT98 whole entry, the tested form may be a part): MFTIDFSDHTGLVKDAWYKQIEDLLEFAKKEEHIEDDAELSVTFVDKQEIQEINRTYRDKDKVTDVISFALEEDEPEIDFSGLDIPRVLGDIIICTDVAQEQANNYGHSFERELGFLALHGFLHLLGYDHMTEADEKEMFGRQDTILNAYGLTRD

luminescence relative to the control (x above the control): 2
Substance: YbeY (split luciferase fusion) (natural protein)
